Test results taken from patent US20070116705A1.

Molecular target: N-terminus of murine PDE8, containing the PAS/PAC domain, fused to the LexA DNA binding domain (PDE8/LexA) (murine)
Experiment: yeast two-hybrid screen, number of high-stringency positive cDNA clones

Sequence of N-terminus of murine PDE8, containing the PAS/PAC domain, fused to the LexA DNA binding domain (PDE8/LexA) (murine) (P0A7C2 other isoform, or with tags, fused parts or gaps limits assumed): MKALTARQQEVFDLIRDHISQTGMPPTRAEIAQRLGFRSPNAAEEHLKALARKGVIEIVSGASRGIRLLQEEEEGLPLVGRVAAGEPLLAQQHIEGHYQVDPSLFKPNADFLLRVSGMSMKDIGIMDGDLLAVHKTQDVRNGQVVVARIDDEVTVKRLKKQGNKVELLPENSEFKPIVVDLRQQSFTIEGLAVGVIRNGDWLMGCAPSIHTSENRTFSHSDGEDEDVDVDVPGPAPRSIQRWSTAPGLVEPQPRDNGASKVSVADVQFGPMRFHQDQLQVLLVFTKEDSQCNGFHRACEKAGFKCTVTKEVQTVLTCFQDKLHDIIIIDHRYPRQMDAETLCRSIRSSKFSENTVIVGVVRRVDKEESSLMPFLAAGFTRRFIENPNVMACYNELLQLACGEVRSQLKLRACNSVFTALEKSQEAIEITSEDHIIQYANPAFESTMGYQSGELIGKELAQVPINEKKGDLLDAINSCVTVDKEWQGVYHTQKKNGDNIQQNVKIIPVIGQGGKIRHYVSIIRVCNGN

| # of clones [clones] | Substance |
| --- | --- |
| 15 | LC8/PIN (Novel) |
| 30 | LC8/PIN (dynein 8 kDa light chain) (from UniProt P63167 1-89) |
| 8 | KIAA0898 (from UniProt O94972 1-964) |
